What was measured:
Test in all cases: BLI; OctetRed96; bacterial proteins immobilised on AR2G sensors by amino coupling; laminin-111 as analyte, 1.63 to 100 nM in PBS; 30 °C
[1] = molecular target: recombinant PA3923 of P. aeruginosa PAO1, 6xHis-tagged (P. aeruginosa PAO1) (UniProt Q9HX90)
[2] = molecular target: recombinant OprG of P. aeruginosa PAO1, 6xHis-tagged (P. aeruginosa PAO1) (UniProt Q9HWW1)
[3] = molecular target: T1, Engelbreth-Holm-Swarm murine sarcoma laminin-111 (mouse, UniProt P19137 25-3083; P02469 22-1786; P02468 34-1607); details: both partners purified
T1 construct: laminin alpha chain of laminin-111 (laminin subunit alpha-1), mouse; carries LG1-5 at its C-terminal end; laminin beta chain of laminin-111 (laminin subunit beta-1), mouse; laminin gamma chain of laminin-111 (laminin subunit gamma-1), mouse; Heterotrimer alpha/beta/gamma; Labelled with colloidal gold for the TEM experiment; also called L2020; source: bought: Sigma-Aldrich (L2020), …

Engelbreth-Holm-Swarm murine sarcoma laminin-111 (from UniProt P19137 25-3083; P02469 22-1786; P02468 34-1607) (complex)
Kd [1]: 6.9 nM
Kd [2]: 4.7 nM

B1: recombinant Paf of P. aeruginosa, 6xHis-tagged (natural protein)
chain: EDGKRLRIGITLHPYYSYVSNIVGDKAEVVPLIPAGFNPHAYEPRAEDIKRIGTLDVVVLNGVGHDDFAERMIASSEKPGIPVIEANAKVPLLAATGMAARGAGKVVNPHTFLSISASITQVNTIARELGKLDPANAKAYTRNARAYAKRLRALRADALARLNKAPAADFRVATIHGAYDYLLREFGLEVTAVVEPAHGIEPSPSQLKKTIDQLKALDVKVIFSEIDFPSTYVETIQRESGVKLYSLSHISYGDYSAGKYEEEMARNLDTVVRAIQESGA
Kd [3]: 2.8 nM

B2: recombinant OprD of P. aeruginosa PAO1, 6xHis-tagged (natural protein)
chain: DAFVSDQAEAKGFIEDSSLDLLLRNYYFNRDGKSGSGDRVDWTQGFLTTYESGFTQGTVGFGVDAFGYLGLKLDGTSDKTGTGNLPVMNDGKPRDDYSRAGGAVKVRISKTMLKWGEMQPTAPVFAAGGSRLFPQTATGFQLQSSEFEGLDLEAGHFTEGKEPTTVKSRGELYATYAGETAKSADFIGGRYAITDNLSASLYGAELEDIYRQYYLNSNYTIPLASDQSLGFDFNIYRTNDEGKAKAGDISNTTWSLAAAYTLDAHTFTLAYQKVHGDQPFDYIGFGRNGSGAGGDSIFLANSVQYSDFNGPGEKSWQARYDLNLASYGVPGLTFMVRYINGKDIDGTKMSDNNVGYKNYGYGEDGKHHETNLEAKYVVQSGPAKDLSFRIRQAWHRANADQGEGDQNEFRLIVDYPLSIL
notes: OprD (porin D, OccD1) of P. aeruginosa PAO1; open reading frame amplified from PAO1 genomic DNA and cloned into pET26(b)+; Labelled with 10 nm colloidal gold for TEM; also called porin D; OccD1; source: E. coli BL21(DE3), purified (Ni-NTA)
Kd [3]: 22 nM

B3: recombinant EstA of P. aeruginosa PAO1, 6xHis-tagged (natural protein)
chain: APSPYSTLVVFGDSLSDAGQFPDPAGPAGSTSRFTNRVGPTYQNGSGEIFGPTAPMLLGNQLGIAPGDLAASTSPVNAQQGIADGNNWAVGGYRTDQIYDSITAANGSLIERDNTLLRSRDGYLVDRARQGLGADPNALYYITGGGNDFLQGRILNDVQAQQAAGRLVDSVQALQQAGARYIVVWLLPDLGLTPATFGGPLQPFASQLSGTFNAELTAQLSQAGANVIPLNIPLLLKEGMANPASFGLAADQNLIGTCFSGNGCTMNPTYGINGSTPDPSKLLFNDSVHPTITGQRLIADYTYSLLSAPWELTLLPEMAHGTLRAYQDELRSQWQADWENWQNVGQWRGFVGGGGQRLDFDSQDSAASGDGNGYNLTLGGSYRIDEAWRAGVAAGFYRQKLEAGAKDSDYRMNSYMASAFVQYQENRWWADAALTGGYLDYDDLKRKFALGGGERSEKGDTNGHLWAFSARLGYDIAQQADSPWHLSPFVSADYARVEVDGYSEKGASATALDYDDQKRSSKRLGAGLQGKYAFGSDTQLFAEYAHEREYEDDTQDLTMSLNSLPGNRFTLEGYTPQDHLNRVSLGFSQKLAPELSLRGGYNWRKGEDDTQQSVSLALSLDF
notes: EstA, autotransporter esterase of P. aeruginosa PAO1; open reading frame amplified from PAO1 genomic DNA and cloned into pET26(b)+; Labelled with 10 nm colloidal gold for TEM; source: E. coli BL21(DE3), purified (Ni-NTA)
Kd [3]: 1.7 nM
